# The supplement of paper PMC6755084
# B1: F1*; the commonest letter at each place (parent)
# chain: GAGACCGCAACTGAAAAGTTGTTATCACTTGTCGTAAGACACTTTGGATGGGTTGAAGTTCTGCACGTAGAAGCAAAAGGC
# Variants of: B1
# Assay: fraction ligated after 30 min (ligated reads / total reads); higher = more ligase activity
# Conditions: with F1*sub RNA substrate (template-directed ligation), 42 °C
# Summary of the method: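 The ligase ribozyme variants were produced by PCR amplification of oligo-pool templates, T7 transcription and purification on gel. Their ligated and unligated forms were gel-separated, then reverse transcribed with barcoded primers before MiSeq sequencing. Core bases were filtered at a quality of ≥20, and fraction ligated per variant was ligated reads over total reads.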
row,Variant,fraction ligated
1,T32C C42A,0.826
2,T32C C42G,0.806
3,T32C C42T,0.842
4,T32A A39C,0.837
5,T32A A39T,0.827
6,T32A A39G,0.832
7,T32A A57C,0.821
8,T32A A57G,0.859
9,T32A A57T,0.821
10,T32A T49C,0.223
11,T32A T49G,0.618
12,T32A T49A,0.568
13,T32G A37T,0.825
14,T32G A37C,0.815
15,T32G A37G,0.842
16,T32C T49A,0.512
17,T32C T49G,0.647
18,T32C T49C,0.193
19,T32A,0.842
20,T32G,0.828
21,T32C,0.803
22,T32C G38T,0.768
23,T32C G38C,0.777
24,T32C G38A,0.794

row,Variant,fraction ligated
1,T32A A48T,0.0494
2,T32A A48G,0.749
3,T32A A48C,0.727
4,T32A C40A,0.834
5,T32A C40T,0.806
6,T32A C40G,0.834
7,T32A A56G,0.808
8,T32A A56T,0.82
9,T32A A56C,0.574
10,T32C A41C,0.755
11,T32C A41T,0.776
12,T32C A41G,0.709
13,T32C A36C,0.795
14,T32C A36G,0.786
15,T32C A36T,0.803
16,G31T T44G,0.764
17,G31T T44C,0.782
18,G31T T44A,0.768
19,G31T T35C,0.782
20,G31T T35G,0.803
21,G31T T35A,0.797
22,T32C T45A,0.726
23,T32C T45G,0.109
24,T32C T45C,0.217

row,Variant,fraction ligated
1,T32A G34A,0.809
2,T32A G34T,0.823
3,T32A G34C,0.809
4,T32C A56C,0.727
5,T32C A56G,0.738
6,T32C A56T,0.766
7,T32A T35C,0.829
8,T32A T35A,0.855
9,T32A T35G,0.812
10,T32C T35A,0.811
11,T32C T35C,0.829
12,T32C T35G,0.808
13,T32A A41C,0.8
14,T32A A41G,0.808
15,T32A A41T,0.825
16,T32A G46T,0.787
17,T32A G46A,0.81
18,T32A G46C,0.778
19,T32C C33A,0.863
20,T32C C33G,0.797
21,T32C C33T,0.849
22,T32C G34T,0.759
23,T32C G34C,0.772
24,T32C G34A,0.796

row,Variant,fraction ligated
1,T32A G38A,0.861
2,T32A G38C,0.82
3,T32A G38T,0.825
4,G31T T32C,0.816
5,G31T T32G,0.826
6,G31T T32A,0.835
7,T32A G55C,0.562
8,T32A G55T,0.826
9,T32A G55A,0.817
10,G31T T49C,0.0332
11,G31T T49A,0.146
12,G31T T49G,0.19
13,T32A C42T,0.845
14,T32A C42G,0.861
15,T32A C42A,0.843
16,T32C G55A,0.771
17,T32C G55C,0.664
18,T32C G55T,0.75
19,G31T G46C,0.681
20,G31T G46T,0.769
21,T32C A37G,0.815
22,T32C A37T,0.78
23,T32C A37C,0.79
24,G31T G47C,0.0376

row,Variant,fraction ligated
1,G31T G47A,0.246
2,G31T G47T,0.022
3,T32C C40A,0.771
4,T32C C40T,0.786
5,T32C C40G,0.743
6,G31T T43C,0.78
7,G31T T43A,0.778
8,G31T T43G,0.76
9,T32C A57G,0.781
10,T32C A57C,0.76
11,T32C A57T,0.775
12,T32A G47C,0.102
13,T32A G47T,0.104
14,T32A G47A,0.597
15,G31T G55C,0.176
16,G31T G55A,0.813
17,G31T G55T,0.759
18,T32G A36C,0.798
19,T32G A36G,0.813
20,T32G A36T,0.823
21,T32A G50C,0.0632
22,T32A G50A,0.232
23,T32A G50T,0.454
24,T32A A37T,0.82

row,Variant,fraction ligated
1,T32A A37G,0.838
2,T32A A37C,0.849
3,T32C T43A,0.779
4,T32C T43C,0.782
5,T32C T43G,0.729
6,T32A T44C,0.82
7,T32A T44G,0.814
8,T32A T44A,0.819
9,G31T T45A,0.387
10,G31T T45G,0.0586
11,G31T T45C,0.116
12,T32C G47T,0.103
13,T32C G47A,0.669
14,T32C G47C,0.0784
15,T32C A48G,0.75
16,T32C A48T,0.114
17,T32C A48C,0.369
18,G31T G50T,0.103
19,G31T G50A,0.0382
20,G31T G50C,0.0159
21,T32C T44C,0.756
22,T32C T44G,0.793
23,T32C T44A,0.751
24,T32A A36G,0.794

row,Variant,fraction ligated
1,T32A A36C,0.815
2,T32A A36T,0.852
3,T32A T43G,0.789
4,T32A T43A,0.831
5,T32A T43C,0.812
6,T32A C33G,0.823
7,T32A C33A,0.811
8,T32A C33T,0.847
9,T32C G50C,0.0903
10,T32C G50T,0.273
11,T32C G50A,0.216
12,T32A T45A,0.763
13,T32A T45C,0.358
14,T32A T45G,0.0954
15,T32G A39T,0.862
16,T32G A39C,0.855
17,T32G A39G,0.819
18,T32C A39G,0.852
19,T32C A39C,0.772
20,T32C A39T,0.778
21,T32C G46A,0.763
22,T32C G46C,0.717
23,T32C G46T,0.729
